Tests used:
[1] = target: human p140 TrkA receptor (human) (UniProt P04629); assay: Scatchard analysis of 125I[5C3] binding to E25 cells
[2] = target: human p140 TrkA receptor (human) (UniProt P04629); assay: 125I[NGF] (~1 nM) binding to E25 cells after preincubation with excess unlabeled mAb 5C3; competitor unlabeled mAb 5C3
[3] = target: human p140 TrkA receptor (human) (UniProt P04629); assay: Scatchard analysis of 125I[5C3] binding to E25 cells, 4° C.
[4] = target: human p140 TrkA receptor (human) (UniProt P04629); assay: cell-based or functional assay
[5] = target: human p140 TrkA receptor (human) (UniProt P04629); assay: summary of the 125I[5C3] binding studies
[6] = target: human p140 TrkA receptor (human) (UniProt P04629); assay: Scatchard analysis of 125I[5C3] binding to 4-3.6 cells, 4° C.
[7] = target: human p140 TrkA receptor (human) (UniProt P04629); assay: Scatchard analysis of 125I[5C3] binding to 4-3.6 cells
[8] = target: human p140 TrkA receptor (human) (UniProt P04629); assay: 125I[NGF] binding to E25 cells after preincubation with excess unlabeled mAb 5C3
[9] = target: human p140 TrkA receptor (human) (UniProt P04629); assay: 125I[NGF] binding to E25 cells blocked with 5 µM unlabeled NGF (defined as background)
[10] = target: human p140 TrkA receptor (human) (UniProt P04629); assay: FACScan 5C3 surface staining of 4-3.6 cells after NGF treatment at 4° C., relative to vehicle (100%); competitor mAb 5C3
[11] = target: human p140 TrkA receptor (human) (UniProt P04629); assay: FACScan 5C3 surface staining of 4-3.6 cells after NGF treatment at 37° C., relative to vehicle (100%); competitor mAb 5C3

UniProt P04629, sequence (P04629 33-796): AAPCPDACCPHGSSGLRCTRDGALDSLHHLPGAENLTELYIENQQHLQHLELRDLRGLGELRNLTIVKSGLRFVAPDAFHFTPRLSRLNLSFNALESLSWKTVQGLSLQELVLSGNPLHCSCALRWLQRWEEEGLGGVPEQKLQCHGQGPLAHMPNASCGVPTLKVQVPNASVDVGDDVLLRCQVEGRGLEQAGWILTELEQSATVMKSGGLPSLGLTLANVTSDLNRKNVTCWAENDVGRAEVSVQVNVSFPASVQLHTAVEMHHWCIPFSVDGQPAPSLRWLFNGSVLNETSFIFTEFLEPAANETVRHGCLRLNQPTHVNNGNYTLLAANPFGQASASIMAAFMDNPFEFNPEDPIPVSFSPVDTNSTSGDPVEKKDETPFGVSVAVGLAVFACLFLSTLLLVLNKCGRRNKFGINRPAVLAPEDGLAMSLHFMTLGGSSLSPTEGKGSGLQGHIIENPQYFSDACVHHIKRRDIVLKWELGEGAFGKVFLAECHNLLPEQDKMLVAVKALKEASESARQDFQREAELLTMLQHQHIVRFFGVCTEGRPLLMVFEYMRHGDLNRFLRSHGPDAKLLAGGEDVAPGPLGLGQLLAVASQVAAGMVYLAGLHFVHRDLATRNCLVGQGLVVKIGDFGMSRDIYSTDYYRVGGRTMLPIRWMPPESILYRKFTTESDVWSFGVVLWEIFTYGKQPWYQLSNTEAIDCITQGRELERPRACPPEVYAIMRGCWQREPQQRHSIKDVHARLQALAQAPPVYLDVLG

Substance: anti-human TrkA monoclonal antibody 5C3
- 5C3 binding sites/cell [1]: 250000 sites/cell
- % NGF BINDING [2]: 39.3%
- Kd [3]: 1.6 nM
- % 5C3 STAINING after 5C3 (0.01 µg/ml) treatment at 4° C. (receptor internalization, 4-3.6 cells) [4]: 96%
- % 5C3 STAINING after 5C3 (0.01 µg/ml) treatment at 37° C. (receptor internalization, 4-3.6 cells) [4]: 77%
- FOLD INCREASE IN FOCI with respect to mIgG treated cells [4]: 1.9 fold
- TYPICAL CELLS/FOCI (E25 cells in soft agar) [4]: > 48 cells/foci
- fold increase in PY of TrkA with respect to untreated cells (4-3.6 cells) [4]: 3.4 fold
- fold increase in PY of TrkA with respect to untreated cells (E25 cells) [4]: 2.7 fold
- Kd [5]: 2 nM
- Kd [6]: 3 nM
- 5C3 binding sites/cell [7]: 200000 sites/cell
- % inhibition of 125I[NGF] binding [8]: 60%

Substance: Nerve Growth Factor (ligand)
- % NGF BINDING [9]: 0%
- FOLD INCREASE IN FOCI with respect to mIgG treated cells [4]: 1.6 fold
- TYPICAL CELLS/FOCI (E25 cells in soft agar) [4]: 24 cells/foci
- fold increase in PY of TrkA with respect to untreated cells (4-3.6 cells) [4]: 3.8 fold
- fold increase in PY of TrkA with respect to untreated cells (E25 cells) [4]: 6.5 fold
- % 5C3 STAINING [10]: 83%
- % 5C3 STAINING [11]: 75%
